Laboratory results taken from patent US8951792B2, “Methods for making definitive endoderm hepatocyte (DE-hep) progenitor cells” (Cellartis AB, priority 2007, dated 2015).

B1: Activin B (protein, UniProt P09529 293-407, looked up)
Inhibin beta B chain: GLECDGRTNLCCRQQFFIDFRLIGWNDWIIAPTGYYGNYCEGSCPAYLAGVPGSASSFHTAVVNQYRMRGLNPGTVNSCCIPTKLSTMSMLYFDDEYNIVKRDVPNMIVEECGCA
B2: Activin A (protein, UniProt P08476 311-426, looked up)
Inhibin beta A chain: GLECDGKVNICCKKQFFVSFKDIGWNDWIIAPSGYHANYCEGECPSHIAGTSGSSLSFHSTVINHYRMRGHSPFANLKSCCVPTKLRPMSMLYYDDGQNIIKKDIQNMIVEECGCS
notes: TGF-beta family member used at 100 ng/ml to induce definitive endoderm

Columns and labels:
hESC line SA002 = assay: Substituting Activin A with Activin B for induction of endoderm, real-time PCR; format: cell-based, human; settings: 100 ng/ml with 5 ng/ml bFGF, 5 days
Protocol: Undifferentiated hESC line SA002 were exposed to either activin A (100 ng/ml) or activin B (100 ng/ml) in the presence of 5 ng/ml bFGF for 5 days and analyzed for gene expression.
mRNA expression of Foxa2, Sox17, CXCR4, Sox7, CDX2, MT was measured by real-time PCR using the ABI/TaqMan method. In short, RNA was isolated from the cell cultures by using Qiagen's RNeasy system. cDNA was synthesized by using the ABI high capacity cDNA synthesis kit. RT-PCR was performed in a ABI 7500 by using TaqMan probe. The expression level was normalized to CREBBP expression.

hBS cells = assay: Sox17/Sox7 immunostaining of induced definitive endoderm; format: cell-based, human; settings: after 4 days in Activin A
Excerpt: We used Activin A, and Activin A in combination with Wnt3a and/or FGF2 to generate DE. After 4 to 5 days in Stage 1 the hBS cell colony differentiated and genetic markers for early DE were examined using quantitative real-time real time-PCR (Q-PCR). Activin A induced a strong wave of early endoderm at day 3 to 5, and was highlighted by high expression levels of Sox17, HNF3beta (HNF3b or HNF3b) and Cxcr4 expression (FIG. 4) and then reduced to near baseline levels (data not shown). […] Furthermore they up regulate early liver markers like AFP or AAT. At this early stage in differentiation and development, this indicates the presence of extraembryonic endoderm (E×E) in intrinsically differentiating colonies (FIGS. 5 and 10). The expression data were confirmed by co-staining of Sox17/Sox7, Sox17/Cxcr4, Sox17/Oct4, Sox7/HNF3b (data not shown). […] The changes of gene expression after Activin A treatment were associated to morphological changes and distinct differentiation pattern of the colonies (FIG. 2). After 4 to 5 days induction with Activin A containing medium cells gathered together and formed a ring of epithelial cells around the colony. […]
Activin A induces definitive endoderm detected by a combination of Sox17+/Sox7-, 80-90% of the total cells in a Activin A or Activin A/FGF2 treated culture are estimated to be Sox17 positive and negative for Sox7 (manual counting in microscope). […]

Molecule | extraembryonal (ExE) markers Sox7, CDX2 and MT compared to activin A (hESC line SA002) | mRNA expression of endodermal markers Foxa2, Sox17 and CXCR4 compared to activin A (hESC line SA002) | remaining cells Sox17 positive (hBS cells)
B1 | the same or lower | either the same or even higher | –
B2 | – | – | more than 70%
